Assay results: patent US6528619B1, “Inhibitors for urokinase receptor” (Roche Diagnostics GmbH, priority 1997, dated 2003)
Positions of bridges follow the written chain, without caps; N, C: chain ends. Residues, ends and D or L forms follow the SMILES beside them. No end group written: not given here.

Experiments:
recombinant human uPAR = target: T1, recombinant human uPAR (Homo sapiens, UniProt Q03405); assay: Microtitre plate solid phase ATF-ligand binding test (competition with ATF for uPAR); conditions: for inhibition of the binding of ATF to uPAR / uPAR binding capacity: 0.6 ng ATF together with 15 μg synthetic peptide per ml, FIG. 2
T1 construct: made in house; host or cells: CHO cells
Description: In addition to the flow cytometric analyses, a solid phase ATF-ligand binding test was carried out in order to examine the interactions of synthetic peptides with the uPAR. For this microtitre plates were coated with recombinant human uPAR from CHO cells (Wilhelm et al., FEBS Lett. 337 (1994), 131-134; Magdolen et al., Electrophoresis 16 (1995), 813-816) and the remaining protein-binding sites were saturated with 2% BSA (weight/vol.). After incubation with the samples (0.6 ng ATF together with 15 μg synthetic peptide per ml) and several wash steps, the amount of ATF which had bound to the immobilized uPAR on the microtitre plate was determined using a biotinylated monoclonal mouse antibody against the kringle domain of ATF (No. 377, American Diagnostics, Greenwich, Conn., USA) and subsequent addition of avidin-peroxidase conjugate and 3,3′,5,5′-tetramethylbenzidine/[…] as a substrate for the peroxidase. The presence of synthetic peptides which compete with the ATF binding to uPAR reduces the conversion of the chromogenis substrate.
A series of peptides with variable sequence regions from the receptor binding region of uPA were synthesized and were increasingly shortened at the amino terminus starting with uPA10-32. The microtitre plate solid phase binding test described in 1.4 was used to determine the inhibitory capacity of these peptides.

[1] = target: T2, cell surface-associated uPAR (Homo sapiens, UniProt Q03405); assay: Flow cytometry: inhibition of binding of FITC-conjugated pro-uPA to cell surface-associated uPAR on PMA-stimulated U937 cells
T2 construct: After stimulation with PMA the U937 cells expressed considerable amounts of cell surface-associated uPAR; endogenous in cells; host or cells: U937 cells stimulated with PMA
Description: The ability of the synthetic peptides to inhibit the uPA/-uPAR interaction was determined by means of flow cytometry on a FACScan flow cytometer (Becton-Dickinson, Heidelberg, Germany) using the human promyeloid cell line U937 as a source of cellular native uPAR (Chuchulowski et al., Fibrinolysis 6, Suppl. 4 (1992), 95-102; Magdolen et al., (1996), supra). The U937 cells were stimulated with […] phorbol-12-myristate-13-acetate (PMA) for 48 h. After stimulation with PMA the U937 cells expressed considerable amounts of cell surface-associated uPAR.
The stimulated cells were treated for 1 min at room temperature with 50 mM glycine HCl, 0.1 NaCl, pH 3.6 in order to dissociate endogenous receptor-bound uPA. Subsequently the acidic buffer was neutralized with 0.5 M HEPES-100 mM NaCl, pH 7.5. The cells were then immediately washed twice with PBS/0.1% bovine serum albumin (BSA) and centrifuged for 10 min at room temperature and 300×g. The cells were resuspended in PBS/0.1% BSA, adjusted to a concentration of 10^6 cells per ml and simultaneously incubated for 45 minutes at room temperature with 16 ng FITC-conjugated pro-uPA and various amounts of the synthetic peptides. Before the analysis, propidium iodide, a fluorescent dye which specifically binds double-stranded DNA, was added to each sample in order to determine the viability of the analysed U937 cells. Damaged, propidium iodide-labelled cells were excluded from the analysis.
For this the purified peptides were analysed by mass spectroscopy, quantified by amino acid analysis and then tested by flow cytometry according to the method described in 1.3 for their ability to inhibit the binding of fluorescent-labelled pro-uPA to the uPA receptor on U937 cells.

[2] = Stability of binding activity after long storage in aqueous solution or repeated freeze/thaw cycles; type: physicochemical; conditions: compared with linear uPA19-31
[3] = target: T3, recombinant human uPAR from CHO cells (human, UniProt Q03405 23-299, limits assumed); assay: solid phase ATF-ligand binding test, competition with ATF on immobilized recombinant uPAR
T3 construct: Magdolen et al. 1995; also called immobilized uPAR

[4] = target: T4, cell surface-associated uPA receptor (uPAR) on PMA-stimulated human U937 cells (human, UniProt Q03405 23-305); assay: flow cytometry, competition with FITC-pro-uPA on U937 cells
T4 construct: whole, on cells; also called urokinase receptor; cellular native uPAR
Description: (§1) The U937 cells were stimulated with […] phorbol-12-myristate-13-acetate (PMA) for 48 h.
(§2) Subsequently the acidic buffer was neutralized with 0.5 M HEPES-100 mM NaCl, pH 7.5. The cells were then immediately washed twice with PBS/0.1% bovine serum albumin (BSA) and centrifuged for 10 min at room temperature and 300×g. […] Before the analysis, propidium iodide, a fluorescent dye which specifically binds double-stranded DNA, was added to each sample in order to determine the viability of the analysed U937 cells. Damaged, propidium iodide-labelled cells were excluded from the analysis.

[5] = target: T4, cell surface-associated uPA receptor …; assay: flow cytometry, competition with FITC-pro-uPA on U937 cells (section 2.1)
Description: as §1, §2

T2 sequence (Q03405 23-305): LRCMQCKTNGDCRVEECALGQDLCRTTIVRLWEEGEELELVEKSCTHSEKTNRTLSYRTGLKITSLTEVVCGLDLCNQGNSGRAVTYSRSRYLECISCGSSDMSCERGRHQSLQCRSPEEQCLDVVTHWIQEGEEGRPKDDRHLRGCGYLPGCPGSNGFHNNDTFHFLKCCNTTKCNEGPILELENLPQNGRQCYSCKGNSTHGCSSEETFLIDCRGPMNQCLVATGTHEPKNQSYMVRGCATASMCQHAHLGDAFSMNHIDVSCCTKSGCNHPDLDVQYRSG
T4 sequence (Q03405 23-305): as above
T3 sequence (Q03405 23-299 limits assumed): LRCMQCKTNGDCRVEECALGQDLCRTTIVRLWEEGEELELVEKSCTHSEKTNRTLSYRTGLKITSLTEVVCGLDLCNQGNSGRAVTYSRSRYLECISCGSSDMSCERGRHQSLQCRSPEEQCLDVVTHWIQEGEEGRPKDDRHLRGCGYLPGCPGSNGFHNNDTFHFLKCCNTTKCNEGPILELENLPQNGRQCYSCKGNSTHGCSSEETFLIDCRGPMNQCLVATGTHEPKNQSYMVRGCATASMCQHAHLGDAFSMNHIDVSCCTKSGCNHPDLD
T1 sequence (Q03405 23-299 limits assumed): as above

**Q.** With `CC[C@H](C)[C@H](NC(=O)[C@H](CC(N)=O)NC(=O)[C@H](CO)NC(=O)[C@H](Cc1ccccc1)NC(=O)[C@H](Cc1ccc(O)cc1)NC(=O)[C@H](CCCCN)NC(=O)[C@H](CC(N)=O)NC(=O)[C@H](CO)NC(=O)[C@@H](NC(=O)[C@H](CS)NC(=O)[C@@H](NC(=O)CNC(=O)CN)[C@@H](C)O)C(C)C)C(=O)N[C@@H](Cc1c[nH]cn1)C(=O)N[C@@H](Cc1c[nH]c2ccccc12)C(=O)N[C@@H](CS)C(=O)N[C@@H](CC(N)=O)C(=O)O` [uPA16-32] (H-GGTCVSNKYFSNIHWCN-OH; N-terminus and C-terminus assumed) as the molecule, how does the “inhibition of the binding of ATF to uPAR / uPAR binding capacity” value (shortened to “inhibition … to uPAR / uPAR binding capacity”) (recombinant human uPAR) read?
**A.** effectively inhibit the binding of ATF to uPAR

**Q.** And the IC50 [1]?
**A.** ~3.2 µM

**Q.** And the “molar excess resulting in a 50% inhibition of the binding of uPA” value ([1]; U937 cells, 16 ng FITC-conjugated pro-uPA, 45 min, room temperature)?
**A.** approximately 3,000 molar excess

**Q.** And the “higher affinity to uPAR compared to the two other peptides” value ([1]; versus uPA12-32 [C19A] and clone 20 peptide)?
**A.** 4- to 5 fold

**Q.** For “cyclo^19,31uPA19-31: cyclic peptide which contains an intramolecular disulfide bond between the cysteine residues at positions 19 and 31 (CVSNKYFSNIHWC; disulfide 1-13)”, which “inhibition of the binding of uPA to the uPA receptor” value (recombinant human uPAR; cyclic peptide with disulfide bond between Cys 19 and 31) is on record?
**A.** still able to inhibit the binding of uPA to the uPA receptor

**Q.** What about the “stability of binding activity” value [2] of the same molecule?
**A.** significantly more stable

**Q.** Which “inhibition … to uPAR / uPAR binding capacity” value (recombinant human uPAR) does the source give for “uPA10-32: peptide from the receptor binding region of uPA, amino acids 10-32 (NCDCLNGGTCVSNKYFSNIHWCN)” here?
**A.** effectively inhibit the binding of ATF to uPAR

**Q.** For “uPA12-31: peptide from the receptor binding region of uPA (DCLNGGTCVSNKYFSNIHWC)”, which “inhibition … to uPAR / uPAR binding capacity” value (recombinant human uPAR) is on record?
**A.** effectively inhibit the binding of ATF to uPAR

**Q.** For “uPA14-32: peptide having the amino acids 14 to 32 of uPA (LNGGTCVSNKYFSNIHWCN) [reference compound]”, which “inhibition … to uPAR / uPAR binding capacity” value (recombinant human uPAR) is on record?
**A.** effectively inhibit the binding of ATF to uPAR

**Q.** For “uPA17-32: peptide from the receptor binding region of uPA (GTCVSNKYFSNIHWCN)”, which “inhibition … to uPAR / uPAR binding capacity” value (recombinant human uPAR) is on record?
**A.** considerably reduced uPAR binding capacities

**Q.** For “uPA18-30: linear peptide from the receptor binding region of uPA (TCVSNKYFSNIHW)”, which “inhibition … to uPAR / uPAR binding capacity” value (recombinant human uPAR) is on record?
**A.** no significant binding capacity

**Q.** Which “inhibition … to uPAR / uPAR binding capacity” value (recombinant human uPAR) does the source give for “uPA18-34: peptide from the receptor binding region of uPA (TCVSNKYFSNIHWCNCP)” here?
**A.** considerably reduced uPAR binding capacities

**Q.** With “uPA20-30: linear peptide from the receptor binding region of uPA (VSNKYFSNIHW)” as the molecule, how does the “inhibition … to uPAR / uPAR binding capacity” value (recombinant human uPAR) read?
**A.** no significant binding capacity

**Q.** For “uPA20-32: linear peptide from the receptor binding region of uPA (VSNKYFSNIHWCN)”, which “inhibition … to uPAR / uPAR binding capacity” value (recombinant human uPAR) is on record?
**A.** no significant binding capacity

**Q.** With “uPA20-34: peptide from the receptor binding region of uPA (VSNKYFSNIHWCNCP)” as the molecule, how does the “inhibition … to uPAR / uPAR binding capacity” value (recombinant human uPAR) read?
**A.** does not bind at all to the uPAR

**Q.** Does VSNKYFSNIHWCN (peptide, UniProt P00749 40-52, looked up, range 40-52) [uPA20-32] bind [3]?
**A.** no binding (tested: 15 µg synthetic peptide per ml)

**Q.** Does TCVSNKYFSNIHW (peptide, UniProt P00749 38-50, looked up, range 18-30) [uPA18-30] bind [3]?
**A.** no binding (tested: 15 µg synthetic peptide per ml)

**Q.** Does VSNKYFSNIHWCNCP (peptide, UniProt P00749 40-54, looked up, range 40-54) [uPA20-34] bind [3]?
**A.** no binding (tested: 15 µg synthetic peptide per ml)

**Q.** Which “molar excess for 50% inhibition of the binding of uPA” value [4] does the source give for GGTCVSNKYFSNIHWCN (peptide, UniProt P00749 36-52, looked up, range 16-32) [uPA16-32] here?
**A.** ~3000 fold molar excess

**Q.** For CVSNKYFSNIHWC (Linear form) [linear peptide uPA19-31], which IC50 [5] is on record?
**A.** ~0.8 µM

**Q.** For AEPMPHSLNFSQYLWYT [clone 20-peptide AEPMPHSLNFSQYLWYT], which “molar excess for 50% inhibition of the binding of uPA” value [4] is on record?
**A.** ~12000 fold molar excess
